Where two headings read alike, the source gives them in different places. Bounds are passed on as bounds.

The target of experiment [1] is T1, recombinant full length HA of A/Vietnam/1203/04 (H5-VN04) (influenza A virus A/Vietnam/1203/04 …).
Experiment [2] has as its target T2, recombinant full length HA of A/Perth/16/09 (H3-PE09) (influenza A virus A/Perth/16/09 (H3N2)).
The target in experiment [3] is T1, recombinant full length HA of …. As to the kind of experiment: BLI (Octet RED96), IgG1, recombinant HA. In general terms: In BLI a coated tip is dipped into the sample, and binding shifts an interference pattern.
Experiment [4] addresses T2, recombinant full length HA of …. As to the kind of experiment: BLI (Octet RED96), IgG1, recombinant HA.
Experiment [5] deals with full length HA of A/Vietnam/1203/04 (H5-VN04) expressed from pcDNA3.1 (on 293T cells and on pseudotyped … (influenza A virus A/Vietnam/1203/04)). As to the kind of experiment: cell-based or functional assay.
Experiment [6] has as its target T1, recombinant full length HA of …. As to the kind of experiment: BLI, IgG1 (legend of FIG. 15).
Experiment [7] concerns the target T2, recombinant full length HA of …. The experiment in a line: BLI, IgG1 ('further experiments', FIGS. 15A and 15B).
Experiment [8] concerns the target recombinant full length HA of A/mallard/Astrakhan/263/82 (H14-AS82) (influenza A virus …, UniProt P26136 18-568). As to the kind of experiment: BLI, purified recombinant HAs; antibody format not stated here.
Experiment [9] has as its target T1, recombinant full length HA of …. The source holds these as a separate data set.

B1: 3I14 IgG1 (wild type) (antibody, V domains shown)
VH: QVQLLESGGGVVQPGRSLRLSCAASGFTFSNYGMHWVRQAPGKGLEWVAIISFDGSKKYYANSVKGRSTISRDNSKNTLSLQMNSLGPEDTALYYCAKLPSPYYFDSRFVWVAASAFHFWGQGILVTVSS
VL: NFMLTQPPSASGTPGQRVTISCSGSSSNIGGNTVHWFQQLPGTAPKLLIYTNSLRPSGVPDRFSGSKSGTSASLAISGLQSEDEADYYCAAWDDSLNGQVFGGGTKLTVL
What is called Kd is the concentration at which binding is half-saturated. By koff is commonly meant the first-order rate constant of dissociation. One may read the kon as the rate constant with which the complex forms. On to B1, for which the Kd stood at 1.02 nM in experiment [1]; 0.263 nM in experiment [2]; 1.02 nM in experiment [3]; 0.263 nM in experiment [4]; 1.15 nM in experiment [6]; 1.96 nM in experiment [7]. The Kd in experiment [8] was less than 0.1 nM; in [9] it was greater than 1 nM. The koff came out at 0.000383 s⁻¹ in [1], 3.99e-05 s⁻¹ in experiment [2], 0.000387 s⁻¹ in experiment [3] and 3.99e-05 s⁻¹ in experiment [4]. In addition, the kon in experiment [1] was 375000 M⁻¹ s⁻¹; in experiment [2], 152000 M⁻¹ s⁻¹; in [3] it was 327000 M⁻¹ s⁻¹; in experiment [4], 152000 M⁻¹ s⁻¹. In addition, the “IC50, neutralization of H5-VN04 pseudovirus” value in experiment [5] is 0.0816 µg/mL. Also, the “IC50, neutralization of pseudovirus” value in experiment [5] turned out to be 2.14 µg/mL.

These data come from patent US20260167702A1 (Dana-Farber, published 2026).
